Measurements published in publication PMC9100651 (2022).

Molecular target: GABARAP (Homo sapiens, UniProt O95166)
Test: MST, SPR

Chain of GABARAP (O95166 1-116): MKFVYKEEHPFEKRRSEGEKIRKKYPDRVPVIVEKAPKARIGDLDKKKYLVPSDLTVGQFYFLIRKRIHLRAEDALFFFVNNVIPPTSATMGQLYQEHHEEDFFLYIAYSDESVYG

## DATYTWEHLAWP [K1 peptide]
  Kd: ~3000 nM
